Assay results from patent publication US20210032365A1 (Chugai, published 2021).

T1: human C1s (human, UniProt P09871 16-688)
T1 construct: also called hC1s; serum-derived human C1s (CompTech)
T1 sequence: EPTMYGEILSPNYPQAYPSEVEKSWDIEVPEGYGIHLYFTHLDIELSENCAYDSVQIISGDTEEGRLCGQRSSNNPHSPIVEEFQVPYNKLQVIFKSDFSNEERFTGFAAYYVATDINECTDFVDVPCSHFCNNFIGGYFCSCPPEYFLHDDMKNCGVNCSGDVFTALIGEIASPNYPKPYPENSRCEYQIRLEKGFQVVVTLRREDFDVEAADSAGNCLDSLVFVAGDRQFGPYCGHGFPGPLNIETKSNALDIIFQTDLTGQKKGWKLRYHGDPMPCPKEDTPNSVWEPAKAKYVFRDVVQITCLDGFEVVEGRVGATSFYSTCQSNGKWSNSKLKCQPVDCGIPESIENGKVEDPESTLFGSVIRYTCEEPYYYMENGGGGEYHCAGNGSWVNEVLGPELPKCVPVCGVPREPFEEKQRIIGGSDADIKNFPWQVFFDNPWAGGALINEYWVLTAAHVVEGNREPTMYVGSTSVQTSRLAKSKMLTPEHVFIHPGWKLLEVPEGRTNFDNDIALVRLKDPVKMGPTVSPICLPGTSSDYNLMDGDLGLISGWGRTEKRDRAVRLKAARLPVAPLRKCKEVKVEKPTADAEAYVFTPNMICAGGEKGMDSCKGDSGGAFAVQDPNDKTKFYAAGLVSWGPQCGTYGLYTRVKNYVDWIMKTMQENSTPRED


Biological target: T1, human C1s
Experiment: SPR, Ab captured; pH 7.4, 1.2 mM Ca
Procedure: Each antibody was captured onto the sensor surface by protein A/G. Antibody capture levels were aimed at 200 resonance unit (RU). Serum-derived human C1s (CompTech) or recombinant C1s prepared in EXAMPLE 1 was injected at 50 nM, followed by dissociation. The sensor surface was regenerated in each cycle with 10 mM Glycine-HCl, pH 1.5. […] The ratio of KD 5.8+ to KD 7.4+(“KD 5+/7+”) and that of KD 5.8− to KD 7.4+(“KD 5−/7+”) were calculated. When the KD 5+/7+ or KD 5−/7+ of a variant is larger than that of the parent antibody IPN009VH2-SG4GK/IPN009VK3-SK1, that variant is considered to be “pH”- or “pH and Ca”-dependent, respectively. When binding response in 5(+) buffer and/or in 5(−) buffer of a variant is much lower than that of IPN09VH2/IPN009VK3, that variant is also considered as “pH”- and/or “pH and Ca”-dependent. Therefore, such mutations are effective to generate “pH”- and/or “pH and Ca”-dependent antibody. To further enhance “pH” and/or “pH and Ca” dependency, a combination of histidine mutations was conducted. Antibodies with combinations of histidine mutations were evaluated using Biacore by the method described above.
C1_1IPN92H0033 (SEQ ID NO: 17)-SG4GK/IPN93L0024 (SEQ ID NO: 18)-SK1 (IPN92H0033/IPN93L0024) was selected for further optimization. Histidine, Lysine, Arginine, aspartic acid, glutamic acid, and glutamine scanning was conducted for CDRs and certain positions of FRs of IPN92H0033/IPN93L0024. Variants with a mutation were generated and purified, and evaluated using Biacore by the method mentioned above. All variants were evaluated using Biacore as mentioned above. Mutations that improved “pH” and/or “pH and Ca” dependency were selected for the combination.

Binder	Kd [nM]	koff [s⁻¹]	kon [M⁻¹ s⁻¹]
C1_IPN92H0033-SG4GK/IPN93L0072-SK1 (antibody, human IgG4 S228P, kappa, name in Kabat numbering, V domains shown, also called IPN92H0033/IPN93L0072) VH: EVMLVESGGGLVKPGGSLRLSCAASGFTFSNYAMSWVRQAPGKGLEWVATISSGGSHTYYLDSVKGRFTISRDNSKDTLYLQMNSLRAEDTALYYCARLFTGHAMDYWGQGTLVTVSS VL: QIVLTQSPATLSLSPGERATLSCTASSSVKSSYLHWYQQKPGKAPKLWIYSTSNLASGVPSRFSGSGSGTDYTLTISSLQPEDFATYYCHQYYRLHPITFGQGTKLEIKR	1.37	0.000567	413000
C1_IPN92H0147-SG4GK/IPN93L0024-SK1 (antibody, human IgG4 S228P, kappa, name in Kabat numbering, V domains shown, also called IPN92H0147/IPN93L0024) VH: EVMLVESGGGLVKPGGSLRLSCAASGFTFSNYAMSWVRQAPGKGLEWVATISSGGSHDYYLDSVKGRFTISRDNSKDTLYLQMNSLRAEDTALYYCARLFTGHAMDYWGQGTLVTVSS VL: QIVLTQSPATLSLSPGERATLSCTASSSVSSSYLHWYQQKPGKAPKLWIYSTSNLASGVPSRFSGSGSGTDYTLTISSLQPEDFATYYCHQYYRLHPITFGQGTKLEIKR	2.05	0.000765	374000
C1_IPN92H0160-SG4GK/IPN93L0024-SK1 (antibody, human IgG4 S228P, kappa, name in Kabat numbering, V domains shown, also called IPN92H0160/IPN93L0024) VH: EVMLVESGGGLVKPGGSLRLSCAASGFTFSNYAMSWVRQAPGKGLEWVATISSGGSHTYELDSVKGRFTISRDNSKDTLYLQMNSLRAEDTALYYCARLFTGHAMDYWGQGTLVTVSS VL: QIVLTQSPATLSLSPGERATLSCTASSSVSSSYLHWYQQKPGKAPKLWIYSTSNLASGVPSRFSGSGSGTDYTLTISSLQPEDFATYYCHQYYRLHPITFGQGTKLEIKR	1.52	0.000558	368000
C1_IPN92H0091-SG4GK/IPN93L0024-SK1 (antibody, human IgG4 S228P, kappa, name in Kabat numbering, V domains shown, also called IPN92H0091/IPN93L0024) VH: EVMLVESGGGLVKPGGSLRLSCAASGFTFSNYAKSWVRQAPGKGLEWVATISSGGSHTYYLDSVKGRFTISRDNSKDTLYLQMNSLRAEDTALYYCARLFTGHAMDYWGQGTLVTVSS VL: QIVLTQSPATLSLSPGERATLSCTASSSVSSSYLHWYQQKPGKAPKLWIYSTSNLASGVPSRFSGSGSGTDYTLTISSLQPEDFATYYCHQYYRLHPITFGQGTKLEIKR	2.69	0.000746	277000
C1_IPN92H0156-SG4GK/IPN93L0024-SK1 (antibody, human IgG4 S228P, kappa, name in Kabat numbering, V domains shown, also called IPN92H0156/IPN93L0024) VH: EVMLVESGGGLVKPGGSLRLSCAASGFTFSNYAMSWVRQAPGKGLEWVATISSGGSHTKYLDSVKGRFTISRDNSKDTLYLQMNSLRAEDTALYYCARLFTGHAMDYWGQGTLVTVSS VL: QIVLTQSPATLSLSPGERATLSCTASSSVSSSYLHWYQQKPGKAPKLWIYSTSNLASGVPSRFSGSGSGTDYTLTISSLQPEDFATYYCHQYYRLHPITFGQGTKLEIKR	2.12	0.000771	364000
C1_IPN92H0165-SG4GK/IPN93L0024-SK1 (antibody, human IgG4 S228P, kappa, name in Kabat numbering, V domains shown, also called IPN92H0165/IPN93L0024) VH: EVMLVESGGGLVKPGGSLRLSCAASGFTFSNYAMSWVRQAPGKGLEWVATISSGGSHTYYDDSVKGRFTISRDNSKDTLYLQMNSLRAEDTALYYCARLFTGHAMDYWGQGTLVTVSS VL: QIVLTQSPATLSLSPGERATLSCTASSSVSSSYLHWYQQKPGKAPKLWIYSTSNLASGVPSRFSGSGSGTDYTLTISSLQPEDFATYYCHQYYRLHPITFGQGTKLEIKR	1.77	0.000512	289000
C1_IPN92H0079-SG4GK/IPN93L0024-SK1 (antibody, human IgG4 S228P, kappa, name in Kabat numbering, V domains shown, also called IPN92H0079/IPN93L0024) VH: EVMLVESGGGLVKPGGSLRLSCAASGFTFSNKAMSWVRQAPGKGLEWVATISSGGSHTYYLDSVKGRFTISRDNSKDTLYLQMNSLRAEDTALYYCARLFTGHAMDYWGQGTLVTVSS VL: QIVLTQSPATLSLSPGERATLSCTASSSVSSSYLHWYQQKPGKAPKLWIYSTSNLASGVPSRFSGSGSGTDYTLTISSLQPEDFATYYCHQYYRLHPITFGQGTKLEIKR	3.36	0.00125	373000
C1_IPN92H0157-SG4GK/IPN93L0024-SK1 (antibody, human IgG4 S228P, kappa, name in Kabat numbering, V domains shown, also called IPN92H0157/IPN93L0024) VH: EVMLVESGGGLVKPGGSLRLSCAASGFTFSNYAMSWVRQAPGKGLEWVATISSGGSHTRYLDSVKGRFTISRDNSKDTLYLQMNSLRAEDTALYYCARLFTGHAMDYWGQGTLVTVSS VL: QIVLTQSPATLSLSPGERATLSCTASSSVSSSYLHWYQQKPGKAPKLWIYSTSNLASGVPSRFSGSGSGTDYTLTISSLQPEDFATYYCHQYYRLHPITFGQGTKLEIKR	2.03	0.000689	340000
C1_IPN92H0117-SG4GK/IPN93L0024-SK1 (antibody, human IgG4 S228P, kappa, name in Kabat numbering, V domains shown, also called IPN92H0117/IPN93L0024) VH: EVMLVESGGGLVKPGGSLRLSCAASGFTFSNYAMSWVRQAPGKGLEWVATISQGGSHTYYLDSVKGRFTISRDNSKDTLYLQMNSLRAEDTALYYCARLFTGHAMDYWGQGTLVTVSS VL: QIVLTQSPATLSLSPGERATLSCTASSSVSSSYLHWYQQKPGKAPKLWIYSTSNLASGVPSRFSGSGSGTDYTLTISSLQPEDFATYYCHQYYRLHPITFGQGTKLEIKR	3.41	0.000863	253000
C1_IPN92H0145-SG4GK/IPN93L0024-SK1 (antibody, human IgG4 S228P, kappa, name in Kabat numbering, V domains shown, also called IPN92H0145/IPN93L0024) VH: EVMLVESGGGLVKPGGSLRLSCAASGFTFSNYAMSWVRQAPGKGLEWVATISSGGSRTYYLDSVKGRFTISRDNSKDTLYLQMNSLRAEDTALYYCARLFTGHAMDYWGQGTLVTVSS VL: QIVLTQSPATLSLSPGERATLSCTASSSVSSSYLHWYQQKPGKAPKLWIYSTSNLASGVPSRFSGSGSGTDYTLTISSLQPEDFATYYCHQYYRLHPITFGQGTKLEIKR	4.71	0.00157	333000
C1_IPN92H0159-SG4GK/IPN93L0024-SK1 (antibody, human IgG4 S228P, kappa, name in Kabat numbering, V domains shown, also called IPN92H0159/IPN93L0024) VH: EVMLVESGGGLVKPGGSLRLSCAASGFTFSNYAMSWVRQAPGKGLEWVATISSGGSHTYDLDSVKGRFTISRDNSKDTLYLQMNSLRAEDTALYYCARLFTGHAMDYWGQGTLVTVSS VL: QIVLTQSPATLSLSPGERATLSCTASSSVSSSYLHWYQQKPGKAPKLWIYSTSNLASGVPSRFSGSGSGTDYTLTISSLQPEDFATYYCHQYYRLHPITFGQGTKLEIKR	2.06	0.000621	302000
C1_IPN92H0162-SG4GK/IPN93L0024-SK1 (antibody, human IgG4 S228P, kappa, name in Kabat numbering, V domains shown, also called IPN92H0162/IPN93L0024) VH: EVMLVESGGGLVKPGGSLRLSCAASGFTFSNYAMSWVRQAPGKGLEWVATISSGGSHTYKLDSVKGRFTISRDNSKDTLYLQMNSLRAEDTALYYCARLFTGHAMDYWGQGTLVTVSS VL: QIVLTQSPATLSLSPGERATLSCTASSSVSSSYLHWYQQKPGKAPKLWIYSTSNLASGVPSRFSGSGSGTDYTLTISSLQPEDFATYYCHQYYRLHPITFGQGTKLEIKR	1.8	0.000545	303000
C1_IPN92H0033-SG4GK/IPN93L0090-SK1 (antibody, human IgG4 S228P, kappa, name in Kabat numbering, V domains shown, also called IPN92H0033/IPN93L0090) VH: EVMLVESGGGLVKPGGSLRLSCAASGFTFSNYAMSWVRQAPGKGLEWVATISSGGSHTYYLDSVKGRFTISRDNSKDTLYLQMNSLRAEDTALYYCARLFTGHAMDYWGQGTLVTVSS VL: QIVLTQSPATLSLSPGERATLSCTASSSVSSSKLHWYQQKPGKAPKLWIYSTSNLASGVPSRFSGSGSGTDYTLTISSLQPEDFATYYCHQYYRLHPITFGQGTKLEIKR	1.4	0.000676	482000
C1_IPN92H0144-SG4GK/IPN93L0024-SK1 (antibody, human IgG4 S228P, kappa, name in Kabat numbering, V domains shown, also called IPN92H0144/IPN93L0024) VH: EVMLVESGGGLVKPGGSLRLSCAASGFTFSNYAMSWVRQAPGKGLEWVATISSGGSKTYYLDSVKGRFTISRDNSKDTLYLQMNSLRAEDTALYYCARLFTGHAMDYWGQGTLVTVSS VL: QIVLTQSPATLSLSPGERATLSCTASSSVSSSYLHWYQQKPGKAPKLWIYSTSNLASGVPSRFSGSGSGTDYTLTISSLQPEDFATYYCHQYYRLHPITFGQGTKLEIKR	3.68	0.00126	343000
C1_IPN92H0061-SG4GK/IPN93L0024-SK1 (antibody, human IgG4 S228P, kappa, name in Kabat numbering, V domains shown, also called IPN92H0061/IPN93L0024) VH: EVMLVESGGGLVKPGGSLRLSCAASGFTKSNYAMSWVRQAPGKGLEWVATISSGGSHTYYLDSVKGRFTISRDNSKDTLYLQMNSLRAEDTALYYCARLFTGHAMDYWGQGTLVTVSS VL: QIVLTQSPATLSLSPGERATLSCTASSSVSSSYLHWYQQKPGKAPKLWIYSTSNLASGVPSRFSGSGSGTDYTLTISSLQPEDFATYYCHQYYRLHPITFGQGTKLEIKR	6.85	0.00161	236000
